As a reminder, the Kd is the equilibrium constant for the complex coming apart.

We go through two molecules from patent US20110171231A1 (published 2011).

Assay [1] concerns the target T1, recombinant mouse PlGF-2 (mouse, UniProt P49764 24-158, limits assumed).
T1 sequence (looked up): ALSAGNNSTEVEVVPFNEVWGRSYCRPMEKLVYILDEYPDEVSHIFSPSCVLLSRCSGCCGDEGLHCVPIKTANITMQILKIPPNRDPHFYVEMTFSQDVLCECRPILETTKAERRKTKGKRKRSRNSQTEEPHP
In words: competition ELISA on mPlGF-coated plate; blocked ligand: biotinylated NRP-2. Here is the method:
The ability of the anti-PlGF Mabs C9.V2 and 7A10 to block the interaction between PlGF and its co-receptors NRP-1 and NRP-2 (Gluzman-Poltorak et al., 2000; Mamluk et al., 2002) was also tested. For PlGF/NRP1 and PlGF/NRP2 competition binding assays, Microtiter plates (Nunc, Rochester, N.Y., USA) were coated with recombinant mouse PlGF (BioVision, Mountain View, Calif., USA) either at 2 μg/mL (for PlGF/NRP1 binding) or at 4 ug/mL (for PlGF/NRP2 binding) in PBS. After an overnight incubation at 4° C., assay plates were washed with wash buffer (PBS/0.05% Tween 20) and treated with block buffer (PBS/0.5% BSA) for 1 to 2 hours. Samples were serially diluted in sample diluent (PBS/0.5% BSA/15 ppm Proclin/0.05% Tween 20/0.2% BGG/0.25% CHAPS/5 mM EDTA/0.3 M NaCl, pH7.4) containing 0.25 ug/mL of heparin (Sigma, St. Louis, Mo., US) and incubated in the presence of either 100 ng/mL of biotin-mouse
NRP1-Fc (0.66 nM for PlGF/NRP1 binding) or 425 ng/mL of biotin-NRP2-Fc (6 nM for PlGF/NRP2-binding). After incubation for 2 hours, assay plates were washed 6 times with wash buffer and then incubated for 45 to 60 minutes with AMDEX streptavidin-HRP (GE Healthcare, Pittsburgh, Pa., USA) diluted 10,000 folds in assay buffer (PBS/0.5% BSA/0.05% Tween 20, pH7.4). […] Absorbance was measured at 450 nm against a reference wavelength of 620 nm.
For orientation: An ELISA detects its analyte on a solid surface through an enzyme-linked reagent.

Assay [2] has as its target T1, recombinant mouse PlGF-2. In words: cell-based or functional assay.
For assay [3], the target named is T1, recombinant mouse PlGF-2. In words: Biacore, anti-mouse Fc chip. On the technique in general: In SPR one partner is held on a chip, and binding of the other changes the refractive index at the surface.
The target of assay [4] is T2, human PlGF-2 (human, UniProt P49763-3 19-170).
T2 construct: Panning used human PlGF residues 19-116 and human PlGF-1; also called hPlGF-2; hPlGF
T2 sequence (looked up): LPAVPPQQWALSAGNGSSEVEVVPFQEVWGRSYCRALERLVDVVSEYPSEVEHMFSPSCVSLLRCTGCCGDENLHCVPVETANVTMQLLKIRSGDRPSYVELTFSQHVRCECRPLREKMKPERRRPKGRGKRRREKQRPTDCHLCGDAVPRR
In words: Biacore, anti-mouse Fc chip.

Consider “mFLT1(1-3)-IgG (from UniProt P35969) (Fc fusion)”, for which the IC50 (read off the curve) in assay [1] is 4000 pM.

B1: anti-PlGF monoclonal antibody C9.V2 (antibody, mouse IgG2a, V domains shown)
VH: EVQLVESGGGLVQPGGSLRLSCAASGFTFTNTWISWVRQAPGKGLEWVGSITPANGYTNYADSVKGRFTISADTSKNTAYLQMNSLRAEDTAVYYCARAVYPWFFAYWGQGTLVTVSS
VL: DIQMTQSPSSLSASVGDRVTITCRASQYVSHAVAWYQQKPGKAPKLLIYSASFLYSGVPSRFSGSGSGTDFTLTISSLQPEDFATYYCQSAYTPPTTFGQGTKVEIK
notes: also called C9v2.9; anti-PlGF MAb C9v2
Regarding B1, in assay [2], the “calculated IC50 (PlGF-induced migration of 67NR-VEGFR-1 cells, FIG. 2)” value was 800 pM. The Kd in assay [3] is 900 pM; in assay [4], 800 pM. Besides, the “IC50 (read off the curve)” value in assay [1] was approximately 4000 pM.
